Data from US20100021490A1 (INSTITUT NATIONAL DE LA RECHERCHE AGRONOMIQUE INRA, published 2010).

Molecular target: T1, N protein of measles virus (Edmonston B strain) (measles virus, Edmonston B strain, UniProt P0DXN6 1-525, limits assumed)
T1 construct: The construct is not described; also called measles virus N protein
T1 sequence: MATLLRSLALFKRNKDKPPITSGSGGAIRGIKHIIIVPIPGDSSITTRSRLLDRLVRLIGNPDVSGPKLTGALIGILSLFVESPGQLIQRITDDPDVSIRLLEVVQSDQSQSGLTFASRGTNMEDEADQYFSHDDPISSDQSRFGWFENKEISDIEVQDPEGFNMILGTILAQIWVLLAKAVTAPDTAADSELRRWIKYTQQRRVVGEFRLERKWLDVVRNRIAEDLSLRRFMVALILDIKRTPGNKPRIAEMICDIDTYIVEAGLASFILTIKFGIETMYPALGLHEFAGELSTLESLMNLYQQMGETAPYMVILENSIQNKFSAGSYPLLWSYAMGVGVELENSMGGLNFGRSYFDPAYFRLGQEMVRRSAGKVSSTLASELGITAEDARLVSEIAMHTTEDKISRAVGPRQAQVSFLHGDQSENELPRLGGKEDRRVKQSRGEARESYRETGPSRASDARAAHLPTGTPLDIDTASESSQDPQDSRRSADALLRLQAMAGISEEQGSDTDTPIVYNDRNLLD
Assay: coexpression of the P fragment with N, co-purification

B1: PΔ457N (C-terminal fragment of the measles virus P protein with the N-terminal portion deleted up to residue 456 inclusive) (other, not shown: a dimerising Fc or GST)
chain: GPASRSVIRSIIKSSRLEEDRKRYLMTLLDDIKGANDLAKFHQMLMKIIMK
notes: also called measles PΔ457N
  binding result: no binding
